The source of these data is IntAct's records for PubMed 20098421.

Sequences and labels used below:
B1: Trinucleotide repeat-containing gene 6C protein (Homo sapiens), Q9HCJ0-1 (parent)
chain: MATGSAQGNFTGHTKKTNGNNGTNGALVQSPSNQSALGAGGANSNGSAARVWGVATGSSSGLAHCSVSGGDGKMDTMIGDGRSQNCWGASNSNAGINLNLNPNANPAAWPVLGHEGTVATGNPSSICSPVSAIGQNMGNQNGNPTGTLGAWGNLLPQESTEPQTSTSQNVSFSAQPQNLNTDGPNNTNPMNSSPNPINAMQTNGLPNWGMAVGMGAIIPPHLQGLPGANGSSVSQVSGGSAEGISNSVWGLSPGNPATGNSNSGFSQGNGDTVNSALSAKQNGSSSAVQKEGSGGNAWDSGPPAGPGILAWGRGSGNNGVGNIHSGAWGHPSRSTSNGVNGEWGKPPNQHSNSDINGKGSTGWESPSVTSQNPTVQPGGEHMNSWAKAASSGTTASEGSSDGSGNHNEGSTGREGTGEGRRRDKGIIDQGHIQLPRNDLDPRVLSNTGWGQTPVKQNTAWEFEESPRSERKNDNGTEAWGCAATQASNSGGKNDGSIMNSTNTSSVSGWVNAPPAAVPANTGWGDSNNKAPSGPGVWGDSISSTAVSTAAAAKSGHAWSGAANQEDKSPTWGEPPKPKSQHWGDGQRSNPAWSAGGGDWADSSSVLGHLGDGKKNGSGWDADSNRSGSGWNDTTRSGNSGWGNSTNTKANPGTNWGETLKPGPQQNWASKPQDNNVSNWGGAASVKQTGTGWIGGPVPVKQKDSSEATGWEEPSPPSIRRKMEIDDGTSAWGDPSNYNNKTVNMWDRNNPVIQSSTTTNTTTTTTTTTSNTTHRVETPPPHQAGTQLNRSPLLGPGRKVSSGWGEMPNVHSKTENSWGEPSSPSTLVDNGTAAWGKPPSSGSGWGDHPAEPPVAFGRAGAPVAASALCKPASKSMQEGWGSGGDEMNLSTSQWEDEEGDVWNNAASQESTSSCSSWGNAPKKGLQKGMKTSGKQDEAWIMSRLIKQLTDMGFPREPAEEALKSNNMNLDQAMSALLEKKVDVDKRGLGVTDHNGMAAKPLGCRPPISKESSVDRPTFLDKDGGLVEEPTPSPFLPSPSLKLPLSHSALPSQALGGIASGLGMQNLNSSRQIPSGNLGMFGNSGAAQARTMQQPPQPPVQPLNSSQPSLRAQVPQFLSPQVQAQLLQFAAKNIGLNPALLTSPINPQHMTMLNQLYQLQLAYQRLQIQQQMLQAQRNVSGSMRQQEQQVARTITNLQQQIQQHQRQLAQALLVKQPPPPPPPPHLSLHPSAGKSAMDSFPSHPQTPGLPDLQTKEQQSSPNTFAPYPLAGLNPNMNVNSMDMTGGLSVKDPSQSQSRLPQWTHPNSMDNLPSAASPLEQNPSKHGAIPGGLSIGPPGKSSIDDSYGRYDLIQNSESPASPPVAVPHSWSRAKSDSDKISNGSSINWPPEFHPGVPWKGLQNIDPENDPDVTPGSVPTGPTINTTIQDVNRYLLKSGGKLSDIKSTWSSGPTSHTQASLSHELWKVPRNSTAPTRPPPGLTNPKPSSTWGASPLGWTSSYSSGSAWSTDTSGRTSSWLVLRNLTPQIDGSTLRTLCLQHGPLITFHLNLTQGNAVVRYSSKEEAAKAQKSLHMCVLGNTTILAEFAGEEEVNRFLAQGQALPPTSSWQSSSASSQPRLSAAGSSHGLVRSDAGHWNAPCLGGKGSSELLWGGVPQYSSSLWGPPSADDSRVIGSPTPLTTLLPGDLLSGESL
B2: Trinucleotide repeat-containing gene 6C protein (Homo sapiens), Q9HCJ0 (parent)
chain: MEEKKKKKQEEKKKKEGAQKKAADQKTKVPEPTKTCSSQPQPAGTSTSTSTSTISSSNNGKRASASGQQPAASRYLPREVPPRFRQQEQKQLLKRGQPLPTGTLTSVSPTQGAGPAGVSPPPLPGAGTQHHPSKLQPDLSHSGLADHYENSHWGQQPTYRSEANCSWDKVIIDRTDKEAWPSITGTETESASECTTDTDSASNCGSENSSMATGSAQGNFTGHTKKTNGNNGTNGALVQSPSNQSALGAGGANSNGSAARVWGVATGSSSGLAHCSVSGGDGKMDTMIGDGRSQNCWGASNSNAGINLNLNPNANPAAWPVLGHEGTVATGNPSSICSPVSAIGQNMGNQNGNPTGTLGAWGNLLPQESTEPQTSTSQNVSFSAQPQNLNTDGPNNTNPMNSSPNPINAMQTNGLPNWGMAVGMGAIIPPHLQGLPGANGSSVSQVSGGSAEGISNSVWGLSPGNPATGNSNSGFSQGNGDTVNSALSAKQNGSSSAVQKEGSGGNAWDSGPPAGPGILAWGRGSGNNGVGNIHSGAWGHPSRSTSNGVNGEWGKPPNQHSNSDINGKGSTGWESPSVTSQNPTVQPGGEHMNSWAKAASSGTTASEGSSDGSGNHNEGSTGREGTGEGRRRDKGIIDQGHIQLPRNDLDPRVLSNTGWGQTPVKQNTAWEFEESPRSERKNDNGTEAWGCAATQASNSGGKNDGSIMNSTNTSSVSGWVNAPPAAVPANTGWGDSNNKAPSGPGVWGDSISSTAVSTAAAAKSGHAWSGAANQEDKSPTWGEPPKPKSQHWGDGQRSNPAWSAGGGDWADSSSVLGHLGDGKKNGSGWDADSNRSGSGWNDTTRSGNSGWGNSTNTKANPGTNWGETLKPGPQQNWASKPQDNNVSNWGGAASVKQTGTGWIGGPVPVKQKDSSEATGWEEPSPPSIRRKMEIDDGTSAWGDPSNYNNKTVNMWDRNNPVIQSSTTTNTTTTTTTTTSNTTHRVETPPPHQAGTQLNRSPLLGPVSSGWGEMPNVHSKTENSWGEPSSPSTLVDNGTAAWGKPPSSGSGWGDHPAEPPVAFGRAGAPVAASALCKPASKSMQEGWGSGGDEMNLSTSQWEDEEGDVWNNAASQESTSSCSSWGNAPKKGLQKGMKTSGKQDEAWIMSRLIKQLTDMGFPREPAEEALKSNNMNLDQAMSALLEKKVDVDKRGLGVTDHNGMAAKPLGCRPPISKESSVDRPTFLDKDGGLVEEPTPSPFLPSPSLKLPLSHSALPSQALGGIASGLGMQNLNSSRQIPSGNLGMFGNSGAAQARTMQQPPQPPVQPLNSSQPSLRAQVPQFLSPQVQAQLLQFAAKNIGLNPALLTSPINPQHMTMLNQLYQLQLAYQRLQIQQQMLQAQRNVSGSMRQQEQQVARTITNLQQQIQQHQRQLAQALLVKQPPPPPPPPHLSLHPSAGKSAMDSFPSHPQTPGLPDLQTKEQQSSPNTFAPYPLAGLNPNMNVNSMDMTGGLSVKDPSQSQSRLPQWTHPNSMDNLPSAASPLEQNPSKHGAIPGGLSIGPPGKSSIDDSYGRYDLIQNSESPASPPVAVPHSWSRAKSDSDKISNGSSINWPPEFHPGVPWKGLQNIDPENDPDVTPGSVPTGPTINTTIQDVNRYLLKSGGSSPPSSQNATLPSSSAWPLSASGYSSSFSSIASAPSVAGKLSDIKSTWSSGPTSHTQASLSHELWKVPRNSTAPTRPPPGLTNPKPSSTWGASPLGWTSSYSSGSAWSTDTSGRTSSWLVLRNLTPQIDGSTLRTLCLQHGPLITFHLNLTQGNAVVRYSSKEEAAKAQKSLHMCVLGNTTILAEFAGEEEVNRFLAQGQALPPTSSWQSSSASSQPRLSAAGSSHGLVRSDAGHWNAPCLGGKGSSELLWGGVPQYSSSLWGPPSADDSRVIGSPTPLTTLLPGDLLSGESL

Variants of B1 are the subject of the first test. The note with it: with pabp1_human PABPC1, P11940.
Target sequence in this assay (P11940 whole entry): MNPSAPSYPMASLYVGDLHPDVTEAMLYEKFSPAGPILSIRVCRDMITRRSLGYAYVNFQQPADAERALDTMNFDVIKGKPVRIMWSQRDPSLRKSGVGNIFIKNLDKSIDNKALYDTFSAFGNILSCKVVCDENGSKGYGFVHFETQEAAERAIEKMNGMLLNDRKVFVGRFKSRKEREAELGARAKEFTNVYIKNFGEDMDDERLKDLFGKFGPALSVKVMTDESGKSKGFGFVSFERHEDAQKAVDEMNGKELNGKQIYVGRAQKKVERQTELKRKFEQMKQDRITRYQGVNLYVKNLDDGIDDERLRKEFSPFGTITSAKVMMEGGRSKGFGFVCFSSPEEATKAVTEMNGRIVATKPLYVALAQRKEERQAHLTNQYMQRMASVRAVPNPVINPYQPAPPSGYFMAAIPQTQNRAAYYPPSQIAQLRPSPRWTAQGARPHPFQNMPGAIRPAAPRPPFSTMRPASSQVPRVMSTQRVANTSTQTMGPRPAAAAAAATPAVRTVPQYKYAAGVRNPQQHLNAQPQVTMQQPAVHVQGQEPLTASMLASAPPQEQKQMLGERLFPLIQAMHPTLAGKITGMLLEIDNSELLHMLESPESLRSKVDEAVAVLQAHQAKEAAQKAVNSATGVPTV
Consider E1388A;F1389A;W1395A;K1396A, for which the “effect of a mutation on the interaction” value is recorded as “disrupting interaction”.

The variants in another test derive from B2. The note with it: with pabp1_human PABPC1, P11940.
Target sequence in this assay (P11940 whole entry): as above
As to E1595A;F1596A, the “effect of a mutation on the interaction” value is given as “disrupting interaction”.

W1602A;K1603A: the “effect of a mutation on the interaction” value is reported as “disrupting interaction”.
